The results in this text go back to article PMC8473191.

Experiment [1] concerns the target mMH1_02TE, H1 hemagglutinin ectodomain (A/Hawaii/70/2019) with cleavable foldon and histidine tag (influenza A virus A/Hawaii/70/2019 (H1) | not stated). Put plainly: SEC-MALS. For orientation: SEC sorts molecules by how far they enter the pores of the column.
In experiment [2] the target is mMH3_02TE, H3 hemagglutinin ectodomain (A/Hong Kong/45/2019) with cleavable foldon and histidine tag (influenza A virus A/Hong Kong/45/2019 (H3) | not stated). Put plainly: SEC-MALS.

In turn, “mMH1_02TE, H1 hemagglutinin ectodomain (A/Hawaii/70/2019) with cleavable foldon and histidine tag (domain or fragment)” had a stoichiometry N in experiment [1] of 3. Consider “mMH3_02TE, H3 hemagglutinin ectodomain (A/Hong Kong/45/2019) with cleavable foldon and histidine tag (domain or fragment)”, for which the stoichiometry N in experiment [2] was 3.

Broadly, the stoichiometry N is the number of molecules, sites or subunits per partner or assembly.
